{
  "source": "paper PMC7948422",
  "about": "“Repurposing p97 inhibitors for chemical modulation of the bacterial ClpB–DnaK bichaperone system” (The Journal of Biological Chemistry, 2020)",
  "binders": {"B1": {"name": "FITC-B2 (FITC-Ahx-QRKLFFNLRKTKQRLGWFNQ-NH2) (peptide)", "peptide": "{FITC-Ahx}-QRKLFFNLRKTKQRLGWFNQ-NH2", "SMILES": "CC(C)C[C@H](NC(=O)[C@H](CCCNC(=N)N)NC(=O)[C@H](CCC(N)=O)NC(=O)[C@H](CCCCN)NC(=O)[C@@H](NC(=O)[C@H](CCCCN)NC(=O)[C@H](CCCNC(=N)N)NC(=O)[C@H](CC(C)C)NC(=O)[C@H](CC(N)=O)NC(=O)[C@H](Cc1ccccc1)NC(=O)[C@H](Cc1ccccc1)NC(=O)[C@H](CC(C)C)NC(=O)[C@H](CCCCN)NC(=O)[C@H](CCCNC(=N)N)NC(=O)[C@H](CCC(N)=O)NC(=O)CCCCCNC(=S)Nc1ccc2c(c1)C(=O)OC21c2ccc(O)cc2Oc2cc(O)ccc21)[C@@H](C)O)C(=O)NCC(=O)N[C@@H](Cc1c[nH]c2ccccc12)C(=O)N[C@@H](Cc1ccccc1)C(=O)N[C@@H](CC(N)=O)C(=O)N[C@@H](CCC(N)=O)C(N)=O", "notes": "peptide B2, substrate-mimicking peptide; also called FITC-labeled peptide B2; substrate-mimicking peptide; source: obtained as described before (65)"}},
  "biological_target": "T1, full-length E. coli DnaK (residues 1–638) (Escherichia coli, UniProt P0A6Y8 1-638)",
  "T1 construct": "DnaK (Hsp70), Escherichia coli, residues 1-638; cloned from pTTQ19dnaK+ into pET28a; source: E. coli BL21(DE3), purified (Q Sepharose, DEAE-Sephacel, Superdex 200)",
  "T1 sequence (P0A6Y8 whole entry, the tested form may be a part)": "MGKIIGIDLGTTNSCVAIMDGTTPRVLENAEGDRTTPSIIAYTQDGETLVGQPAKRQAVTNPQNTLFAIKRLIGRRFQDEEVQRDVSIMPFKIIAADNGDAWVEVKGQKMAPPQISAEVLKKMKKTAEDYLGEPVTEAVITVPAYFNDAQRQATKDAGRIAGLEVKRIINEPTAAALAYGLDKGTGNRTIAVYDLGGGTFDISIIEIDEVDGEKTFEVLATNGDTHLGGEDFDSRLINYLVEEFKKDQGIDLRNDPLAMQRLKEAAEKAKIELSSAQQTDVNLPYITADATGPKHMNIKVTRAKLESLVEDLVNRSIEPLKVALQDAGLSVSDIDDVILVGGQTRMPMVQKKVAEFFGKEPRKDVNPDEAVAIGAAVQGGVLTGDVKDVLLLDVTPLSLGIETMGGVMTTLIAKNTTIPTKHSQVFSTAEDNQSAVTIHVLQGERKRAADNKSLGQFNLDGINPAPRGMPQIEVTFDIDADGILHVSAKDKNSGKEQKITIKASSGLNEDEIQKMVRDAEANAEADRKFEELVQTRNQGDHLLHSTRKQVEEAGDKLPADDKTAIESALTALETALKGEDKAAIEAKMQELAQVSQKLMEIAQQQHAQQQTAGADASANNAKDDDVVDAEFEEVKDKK",
  "assay": "fluorescence polarisation; fluorescence anisotropy of FITC-B2 with 1-μM DnaK in buffer C (50-mM Tris-HCl pH 7.4, 20-mM MgCl2, 1-mM EDTA, 0.5-mM TCEP), DBeQ solutions in DMSO added, room temperature, 30-min incubation",
  "conditions": "both partners purified",
  "note": "*: point of attachment. FITC = O=C1OC2(c3ccc(O)cc3Oc3cc(O)ccc32)c2ccc(NC(=S)*)cc21; Ahx = NCCCCCC(=O)O",
  "data": [
    {"binder": "B1", "values": [
      {"measurement": "binding result", "value": "binds"}
    ]}
  ]
}
